Source: the supplement of paper PMC10567573

B1: ZNF449 (parent)
chain: YRHQRLHTGERPYECTVCKKRFTR
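Also: lentivirally expressed fusions sorted by FACS into six bins by GFP to DsRed ratio, PSI derived from sequencing read proportions per bin multiplied by bin number.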

Variants of: B1
Test: protein stability index of a GFP-peptide fusion (GPS, HEK-293T) (PSI 1-6); higher = more stable
Details: c terminus: a fixed tail appended
NRHQRLHTGERPYECTVCKKRFTR [Y1N] gave a protein stability index of 2.35. With FRHQRLHTGERPYECTVCKKRFTR [Y1F] the protein stability index was 1.65. For HRHQRLHTGERPYECTVCKKRFTR [Y1H], the protein stability index was 2.98. KRHQRLHTGERPYECTVCKKRFTR [Y1K] gave a protein stability index of 2.77. In the case of QRHQRLHTGERPYECTVCKKRFTR [Y1Q], the protein stability index is reported as 2.88. In the case of SRHQRLHTGERPYECTVCKKRFTR [Y1S], the protein stability index is reported as 3.05. In the case of PRHQRLHTGERPYECTVCKKRFTR [Y1P], the protein stability index is reported as 2.7. GRHQRLHTGERPYECTVCKKRFTR [Y1G] showed a protein stability index of 2.21. ARHQRLHTGERPYECTVCKKRFTR [Y1A] gave a protein stability index of 3.22. In the case of IRHQRLHTGERPYECTVCKKRFTR [Y1I], the protein stability index is reported as 2.55. With RRHQRLHTGERPYECTVCKKRFTR [Y1R] the protein stability index was 3.05. In the case of ERHQRLHTGERPYECTVCKKRFTR [Y1E], the protein stability index is reported as 3.16. Variant WRHQRLHTGERPYECTVCKKRFTR [Y1W] has a protein stability index of 1.97. Variant LRHQRLHTGERPYECTVCKKRFTR [Y1L] has a protein stability index of 2.83. Variant CRHQRLHTGERPYECTVCKKRFTR [Y1C] has a protein stability index of 3.93. MRHQRLHTGERPYECTVCKKRFTR [Y1M] gave a protein stability index of 2.92. In the case of DRHQRLHTGERPYECTVCKKRFTR [Y1D], the protein stability index is reported as 2.58. For TRHQRLHTGERPYECTVCKKRFTR [Y1T], the protein stability index was 2.65. Variant VRHQRLHTGERPYECTVCKKRFTR [Y1V] has a protein stability index of 2.45. For YRHQRAHTGERPYECTVCKKRFTR [L6A], the protein stability index was 2.77. Variant YRHQREHTGERPYECTVCKKRFTR [L6E] has a protein stability index of 2.09. Work on YRHQRCHTGERPYECTVCKKRFTR [L6C] yielded a protein stability index of 3.06. For YRHQRDHTGERPYECTVCKKRFTR [L6D], the protein stability index was 2.37. For YRHQYLHTGERPYECTVCKKRFTR [R5Y], the protein stability index was 2.2. Work on YRHQCLHTGERPYECTVCKKRFTR [R5C] yielded a protein stability index of 3.51. In the case of YRHQHLHTGERPYECTVCKKRFTR [R5H], the protein stability index is reported as 3. For YRHQILHTGERPYECTVCKKRFTR [R5I], the protein stability index was 1.89. In the case of YRHQWLHTGERPYECTVCKKRFTR [R5W], the protein stability index is reported as 2.29. With YRHQDLHTGERPYECTVCKKRFTR [R5D] the protein stability index was 2.06. With YRHQNLHTGERPYECTVCKKRFTR [R5N] the protein stability index was 2.21. With YRHQSLHTGERPYECTVCKKRFTR [R5S] the protein stability index was 2.24. Variant YRHQMLHTGERPYECTVCKKRFTR [R5M] has a protein stability index of 2.25. With YRHQTLHTGERPYECTVCKKRFTR [R5T] the protein stability index was 1.69. Variant YRHQLLHTGERPYECTVCKKRFTR [R5L] has a protein stability index of 2.15. YRHQQLHTGERPYECTVCKKRFTR [R5Q] gave a protein stability index of 2.61. YRHQPLHTGERPYECTVCKKRFTR [R5P] gave a protein stability index of 2.08. YRHQVLHTGERPYECTVCKKRFTR [R5V] gave a protein stability index of 2.19. In the case of YRHQGLHTGERPYECTVCKKRFTR [R5G], the protein stability index is reported as 2.31. Work on YRHQFLHTGERPYECTVCKKRFTR [R5F] yielded a protein stability index of 2.49. Work on YRHQELHTGERPYECTVCKKRFTR [R5E] yielded a protein stability index of 1.91. For YRHQKLHTGERPYECTVCKKRFTR [R5K], the protein stability index was 2.18. For YRHQALHTGERPYECTVCKKRFTR [R5A], the protein stability index was 2.08. YRHIRLHTGERPYECTVCKKRFTR [Q4I] showed a protein stability index of 1.93. Work on YRHKRLHTGERPYECTVCKKRFTR [Q4K] yielded a protein stability index of 2.39. In the case of YRHERLHTGERPYECTVCKKRFTR [Q4E], the protein stability index is reported as 2.3. In the case of YRHYRLHTGERPYECTVCKKRFTR [Q4Y], the protein stability index is reported as 1.78. In the case of YRHDRLHTGERPYECTVCKKRFTR [Q4D], the protein stability index is reported as 2.22. YRHARLHTGERPYECTVCKKRFTR [Q4A] gave a protein stability index of 2.44. YRHTRLHTGERPYECTVCKKRFTR [Q4T] gave a protein stability index of 2.64. Work on YRHMRLHTGERPYECTVCKKRFTR [Q4M] yielded a protein stability index of 1.73. With YRHGRLHTGERPYECTVCKKRFTR [Q4G] the protein stability index was 2.34. Work on YRHWRLHTGERPYECTVCKKRFTR [Q4W] yielded a protein stability index of 2.11. YRHHRLHTGERPYECTVCKKRFTR [Q4H] gave a protein stability index of 3.41. Variant YRHLRLHTGERPYECTVCKKRFTR [Q4L] has a protein stability index of 1.78. With YRHPRLHTGERPYECTVCKKRFTR [Q4P] the protein stability index was 2.03. YRHRRLHTGERPYECTVCKKRFTR [Q4R] gave a protein stability index of 2.36. With YRHNRLHTGERPYECTVCKKRFTR [Q4N] the protein stability index was 2.24. With YRHVRLHTGERPYECTVCKKRFTR [Q4V] the protein stability index was 2.13. With YRHCRLHTGERPYECTVCKKRFTR [Q4C] the protein stability index was 2.99. YRHSRLHTGERPYECTVCKKRFTR [Q4S] gave a protein stability index of 2.35. In the case of YRHFRLHTGERPYECTVCKKRFTR [Q4F], the protein stability index is reported as 1.88. With YRPQRLHTGERPYECTVCKKRFTR [H3P] the protein stability index was 2.68. YRRQRLHTGERPYECTVCKKRFTR [H3R] gave a protein stability index of 2.44. In the case of YRTQRLHTGERPYECTVCKKRFTR [H3T], the protein stability index is reported as 2.56. With YRGQRLHTGERPYECTVCKKRFTR [H3G] the protein stability index was 2.28. In the case of YRQQRLHTGERPYECTVCKKRFTR [H3Q], the protein stability index is reported as 2.21. With YRLQRLHTGERPYECTVCKKRFTR [H3L] the protein stability index was 1.52. Variant YRFQRLHTGERPYECTVCKKRFTR [H3F] has a protein stability index of 1.66. YRNQRLHTGERPYECTVCKKRFTR [H3N] gave a protein stability index of 2.69. Work on YREQRLHTGERPYECTVCKKRFTR [H3E] yielded a protein stability index of 1.83. With YRIQRLHTGERPYECTVCKKRFTR [H3I] the protein stability index was 2.12. YRWQRLHTGERPYECTVCKKRFTR [H3W] showed a protein stability index of 1.65. With YRVQRLHTGERPYECTVCKKRFTR [H3V] the protein stability index was 2.03. For YRKQRLHTGERPYECTVCKKRFTR [H3K], the protein stability index was 2.05. With YRAQRLHTGERPYECTVCKKRFTR [H3A] the protein stability index was 1.89. Variant YRDQRLHTGERPYECTVCKKRFTR [H3D] has a protein stability index of 2.15. Work on YRYQRLHTGERPYECTVCKKRFTR [H3Y] yielded a protein stability index of 1.81. For YRMQRLHTGERPYECTVCKKRFTR [H3M], the protein stability index was 2.14. Work on YRSQRLHTGERPYECTVCKKRFTR [H3S] yielded a protein stability index of 2.35. Variant YRCQRLHTGERPYECTVCKKRFTR [H3C] has a protein stability index of 2.4. YKHQRLHTGERPYECTVCKKRFTR [R2K] showed a protein stability index of 2.32. YQHQRLHTGERPYECTVCKKRFTR [R2Q] gave a protein stability index of 2.12. In the case of YPHQRLHTGERPYECTVCKKRFTR [R2P], the protein stability index is reported as 1.63. In the case of YNHQRLHTGERPYECTVCKKRFTR [R2N], the protein stability index is reported as 1.56. In the case of YYHQRLHTGERPYECTVCKKRFTR [R2Y], the protein stability index is reported as 2.38. With YWHQRLHTGERPYECTVCKKRFTR [R2W] the protein stability index was 1.57. For YFHQRLHTGERPYECTVCKKRFTR [R2F], the protein stability index was 1.88. Variant YVHQRLHTGERPYECTVCKKRFTR [R2V] has a protein stability index of 3.09. YDHQRLHTGERPYECTVCKKRFTR [R2D] showed a protein stability index of 2.48. Work on YTHQRLHTGERPYECTVCKKRFTR [R2T] yielded a protein stability index of 1.8. For YGHQRLHTGERPYECTVCKKRFTR [R2G], the protein stability index was 2.92. In the case of YSHQRLHTGERPYECTVCKKRFTR [R2S], the protein stability index is reported as 2.76. YLHQRLHTGERPYECTVCKKRFTR [R2L] showed a protein stability index of 2.16. In the case of YAHQRLHTGERPYECTVCKKRFTR [R2A], the protein stability index is reported as 1.81.
